B1: bZIP transcription factor 53 (Arabidopsis thaliana (Mouse-ear cress)), Q9LZP8 (parent)
chain: MGSLQMQTSPESDNDPRYATVTDERKRKRMISNRESARRSRMRKQKQLGDLINEVTLLKNDNAKITEQVDEASKKYIEMESKNNVLRAQASELTDRLRSLNSVLEMVEEISGQALDIPEIPESMQNPWQMPCPMQPIRASADMFDC
partner: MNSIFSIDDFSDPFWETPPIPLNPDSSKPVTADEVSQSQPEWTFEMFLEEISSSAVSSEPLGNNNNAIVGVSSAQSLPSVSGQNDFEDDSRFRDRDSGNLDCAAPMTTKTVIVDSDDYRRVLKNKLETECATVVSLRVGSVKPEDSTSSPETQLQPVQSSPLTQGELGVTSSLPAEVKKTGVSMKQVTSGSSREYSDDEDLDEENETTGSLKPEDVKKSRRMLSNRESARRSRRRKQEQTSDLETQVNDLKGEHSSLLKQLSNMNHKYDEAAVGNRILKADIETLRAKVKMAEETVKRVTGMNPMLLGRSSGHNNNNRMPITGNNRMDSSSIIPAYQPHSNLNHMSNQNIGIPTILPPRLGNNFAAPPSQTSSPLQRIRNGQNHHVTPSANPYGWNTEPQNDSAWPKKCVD
B2: bZIP transcription factor 53 (Arabidopsis thaliana (Mouse-ear cress)), Q9LZP8 (parent)
chain: B1 chain
partner: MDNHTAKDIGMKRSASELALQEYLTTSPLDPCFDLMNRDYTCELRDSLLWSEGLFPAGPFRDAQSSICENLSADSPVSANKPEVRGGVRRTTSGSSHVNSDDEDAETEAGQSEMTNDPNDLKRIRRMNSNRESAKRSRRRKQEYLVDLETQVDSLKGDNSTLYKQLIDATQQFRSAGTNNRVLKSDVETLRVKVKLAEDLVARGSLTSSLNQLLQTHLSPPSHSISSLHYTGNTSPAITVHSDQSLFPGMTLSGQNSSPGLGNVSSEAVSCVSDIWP

Variants of: B1
Settings: with bzp10_arath BZIP10, O22763

For L51P, which “effect of a mutation on the interaction” value is on record?
Its value is “disrupting interaction”.

For A72P, which “effect of a mutation on the interaction” value is on record?
The value was “disrupting interaction”.

Variants of: B2
Settings: with bzip9_arath BZIP9, Q9FUD3

How did the “effect of a mutation on the interaction” value turn out when L51P was run?
The value was “disrupting interaction”.

How did the “effect of a mutation on the interaction” value turn out when A72P was run?
The value was “disrupting interaction”.

— IntAct's records for PubMed 16810321
